The target in the assay is T1, Rpn11 (3XFLAG-tagged, in the 26S proteasome) (S. cerevisiae, UniProt P43588 1-306).
T1 construct: Rpn11, Zn2+-dependent deubiquitinase of the lid, S. cerevisiae; strain YYS40 RPN11::RPN11-3XFLAG; the catalytic Zn2+ is not visible in the structure; also called Rpn11 deubiquitinase; source: purified from S. cerevisiae strain YYS40 as part of the 26S proteasome (anti-FLAG, SEC)
Briefly: cryo-EM structure; 26S proteasome (20 μM; 20 mM HEPES pH 7.6, 25 mM NaCl, 25 mM KCl, 10 mM MgCl2, 1 mM TCEP, 5 mM ATP, 0.05% NP-40, ATP regeneration system, 6 mM ortho-phenanthroline) mixed with an equal volume of 50 μM ubiquitinated model substrate and vitrified at once; single-particle analysis gave four substrate-engaged states (1D*, 5D, 5T, 4D). Conditions: both partners purified.

Consider 1 molecule from publication doi:10.1101/393223, “Structures of the substrate-engaged 26S proteasome reveal the mechanisms for ATP hydrolysis-driven translocation” (bioRxiv, 2018).

B1: ubiquitin (S. cerevisiae), the most proximal, substrate-attached moiety of the poly-ubiquitin chain (natural protein)
chain: not shown
modifications: C-terminus in an isopeptide bond with the substrate lysine; part of a K63-linked ubiquitin chain
notes: ubiquitin, S. cerevisiae; cut product of the ubiquitin precursors; Modeled at the Rpn11 active site in the 4D state with PDB 5U4P as template; also called ubiquitin moiety
In the case of B1, the binding result is “binds”.
